# T1: human LIFRα from HEK 293 cell extracts (human, UniProt P42702 45-1097)
# T1 construct: Endogenous protein from crude cell extract; also called hLIFRα
# T1 sequence (looked up): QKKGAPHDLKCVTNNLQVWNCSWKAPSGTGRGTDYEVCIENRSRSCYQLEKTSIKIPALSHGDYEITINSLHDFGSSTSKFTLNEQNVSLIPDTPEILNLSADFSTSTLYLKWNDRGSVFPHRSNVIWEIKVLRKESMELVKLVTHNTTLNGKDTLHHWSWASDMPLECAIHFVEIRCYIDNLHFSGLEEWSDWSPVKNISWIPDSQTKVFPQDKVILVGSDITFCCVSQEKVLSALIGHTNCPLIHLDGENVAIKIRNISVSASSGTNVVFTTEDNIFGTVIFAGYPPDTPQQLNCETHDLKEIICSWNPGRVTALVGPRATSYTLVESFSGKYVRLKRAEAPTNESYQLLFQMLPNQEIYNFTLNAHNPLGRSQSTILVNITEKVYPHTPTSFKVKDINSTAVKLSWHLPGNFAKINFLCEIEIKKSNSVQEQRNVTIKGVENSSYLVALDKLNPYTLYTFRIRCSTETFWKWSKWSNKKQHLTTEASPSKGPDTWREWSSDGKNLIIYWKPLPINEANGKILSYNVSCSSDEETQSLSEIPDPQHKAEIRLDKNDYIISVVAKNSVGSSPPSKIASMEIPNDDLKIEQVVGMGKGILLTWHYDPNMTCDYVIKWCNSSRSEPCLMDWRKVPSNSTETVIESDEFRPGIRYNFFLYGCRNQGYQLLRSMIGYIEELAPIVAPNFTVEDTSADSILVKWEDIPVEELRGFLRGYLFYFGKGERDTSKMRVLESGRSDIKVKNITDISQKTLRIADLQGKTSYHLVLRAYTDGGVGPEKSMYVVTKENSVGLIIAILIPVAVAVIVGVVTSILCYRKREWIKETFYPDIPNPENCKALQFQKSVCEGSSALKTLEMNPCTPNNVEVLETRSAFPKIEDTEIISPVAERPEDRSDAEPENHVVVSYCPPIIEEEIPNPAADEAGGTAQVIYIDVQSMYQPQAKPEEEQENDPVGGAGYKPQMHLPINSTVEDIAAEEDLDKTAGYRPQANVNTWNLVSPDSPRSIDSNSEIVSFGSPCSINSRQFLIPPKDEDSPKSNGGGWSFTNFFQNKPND
# T2: V5-His-tagged murine soluble LIFR, secreted by HEK 293 cells (mouse, UniProt P42703-2 44-719, limits assumed)
# T2 construct: Used as culture supernatant; also called msLIFR; murine soluble LIFRα; not shown: V5-His tag
# T2 sequence (looked up): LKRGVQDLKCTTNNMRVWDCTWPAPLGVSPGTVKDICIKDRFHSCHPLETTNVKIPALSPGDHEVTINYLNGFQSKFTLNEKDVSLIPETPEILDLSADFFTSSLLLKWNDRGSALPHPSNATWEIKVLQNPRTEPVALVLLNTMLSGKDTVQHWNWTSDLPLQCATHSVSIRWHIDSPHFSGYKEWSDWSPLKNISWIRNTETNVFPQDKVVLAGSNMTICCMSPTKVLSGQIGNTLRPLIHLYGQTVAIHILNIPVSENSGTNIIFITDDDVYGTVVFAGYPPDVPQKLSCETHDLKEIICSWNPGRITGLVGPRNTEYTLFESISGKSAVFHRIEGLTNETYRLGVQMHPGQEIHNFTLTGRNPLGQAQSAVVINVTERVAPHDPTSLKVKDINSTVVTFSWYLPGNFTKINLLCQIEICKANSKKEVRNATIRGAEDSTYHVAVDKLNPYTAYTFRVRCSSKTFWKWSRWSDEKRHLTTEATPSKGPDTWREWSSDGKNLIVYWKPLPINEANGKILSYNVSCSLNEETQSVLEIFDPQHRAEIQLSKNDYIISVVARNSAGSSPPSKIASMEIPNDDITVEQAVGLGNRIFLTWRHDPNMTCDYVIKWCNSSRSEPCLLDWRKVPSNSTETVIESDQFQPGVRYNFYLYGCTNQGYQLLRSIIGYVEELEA
# How the values were obtained:
# [1] = target: iodinated murine LIF (125I-mLIF) (mouse, UniProt P09056 24-203); experiment: radioligand binding on transfected Ba/F3 cells
# murine LIF, unlabelled = murine LIF, unlabelled (mouse, UniProt P09056 24-203); experiment: displacement of 125I-mLIF from Ba/F3 cells transfected with LIFRα and gp130
# [2] = target: T1, human LIFRα from HEK 293 cell extracts; experiment: GST pull-down, HEK cell extracts as prey, anti-LIFR Western blot
# [3] = target: T2, V5-His-tagged murine soluble LIFR, …; experiment: GST pull-down, HEK supernatant with msLIFR as prey, anti-V5 Western blot
binding result [1],"binding result (murine LIF, unlabelled)",binding result [2],binding result [3],Binder
binds,binds,,,"heterodimeric LIF receptor (murine gp130 and LIFRα) on transiently transfected Ba/F3 cells (receptor, whole, on cells; Also used here for the endogenous LIFR of murine M1 cells in the proliferation assay; also called classical LIFR; LIFRα/gp130) chain 1: QLLEPCGYIYPEFPVVQRGSNFTAICVLKEACLQHYYVNASYIVWKTNHAAVPREQVTVINRTTSSVTFTDVVLPSVQLTCNILSFGQIEQNVYGVTMLSGFPPDKPTNLTCIVNEGKNMLCQWDPGRETYLETNYTLKSEWATEKFPDCQSKHGTSCMVSYMPTYYVNIEVWVEAENALGKVSSESINFDPVDKVKPTPPYNLSVTNSEELSSILKLSWVSSGLGGLLDLKSDIQYRTKDASTWIQVPLEDTMSPRTSFTVQDLKPFTEYVFRIRSIKDSGKGYWSDWSEEASGTTYEDRPSRPPSFWYKTNPSHGQEYRSVRLIWKALPLSEANGKILDYEVILTQSKSVSQTYTVTGTELTVNLTNDRYVASLAARNKVGKSAAAVLTIPSPHVTAAYSVVNLKAFPKDNLLWVEWTPPPKPVSKYILEWCVLSENAPCVEDWQQEDATVNRTHLRGRLLESKCYQITVTPVFATGPGGSESLKAYLKQAAPARGPTVRTKKVGKNEAVLAWDQIPVDDQNGFIRNYSISYRTSVGKEMVVHVDSSHTEYTLSSLSSDTLYMVRMAAYTDEGGKDGPEFTFTTPKFAQGEIEAIVVPVCLAFLLTTLLGVLFCFNKRDLIKKHIWPNVPDPSKSHIAQWSPHTPPRHNFNSKDQMYSDGNFTDVSVVEIEANNKKPCPDDLKSVDLFKKEKVSTEGHSSGIGGSSCMSSSRPSISSNEENESAQSTASTVQYSTVVHSGYRHQVPSVQVFSRSESTQPLLDSEERPEDLQLVDSVDGGDEILPRQPYFKQNCSQPEACPEISHFERSNQVLSGNEEDFVRLKQQQVSDHISQPYGSEQRRLFQEGSTADALGTGADGQMERFESVGMETTIDEEIPKSYLPQTVRQGGYMPQ chain 2: LKRGVQDLKCTTNNMRVWDCTWPAPLGVSPGTVKDICIKDRFHSCHPLETTNVKIPALSPGDHEVTINYLNGFQSKFTLNEKDVSLIPETPEILDLSADFFTSSLLLKWNDRGSALPHPSNATWEIKVLQNPRTEPVALVLLNTMLSGKDTVQHWNWTSDLPLQCATHSVSIRWHIDSPHFSGYKEWSDWSPLKNISWIRNTETNVFPQDKVVLAGSNMTICCMSPTKVLSGQIGNTLRPLIHLYGQTVAIHILNIPVSENSGTNIIFITDDDVYGTVVFAGYPPDVPQKLSCETHDLKEIICSWNPGRITGLVGPRNTEYTLFESISGKSAVFHRIEGLTNETYRLGVQMHPGQEIHNFTLTGRNPLGQAQSAVVINVTERVAPHDPTSLKVKDINSTVVTFSWYLPGNFTKINLLCQIEICKANSKKEVRNATIRGAEDSTYHVAVDKLNPYTAYTFRVRCSSKTFWKWSRWSDEKRHLTTEATPSKGPDTWREWSSDGKNLIVYWKPLPINEANGKILSYNVSCSLNEETQSVLEIFDPQHRAEIQLSKNDYIISVVARNSAGSSPPSKIASMEIPNDDITVEQAVGLGNRIFLTWRHDPNMTCDYVIKWCNSSRSEPCLLDWRKVPSNSTETVIESDQFQPGVRYNFYLYGCTNQGYQLLRSIIGYVEELAPIVAPNFTVEDTSADSILVKWDDIPVEELRGFLRGYLFYFQKGERDTPKTRSLEPHHSDIKLKNITDISQKTLRIADLQGKTSYHLVLRAYTHGGLGPEKSMFVVTKENSVGLIIAILIPVAVAVIVGVVTSILCYRKREWIKETFYPDIPNPENCKALQFQKSVCEGSNALKTLEMNPCTPNNVEVLESRSIVPKIEDTEIISPVAERPGERSEVDPENHVVVSYCPPIIEEEITNPAADEVGGASQVVYIDVQSMYQPQAKAEEEQDVDPVVVAGYKPQMRLPISPAVEDTAAEDEEGKTAGYRPQANVNTWNLVSPDSPRSTDSNNEVVSFGSPCSINSRQFLIPPKDEDSPKSNGGGWSFTNFFQNKPND"
,,no binding,no binding,"GST fusion protein of mature murine EPO, expressed in E. coli (ligand, mouse, UniProt P07321 27-192, looked up, mature; also called GST-matmEPO; matmE; not shown: N-terminal GST tag from pGEX-6P-1) APPRLICDSRVLERYILEAKEAENVTMGCAEGPRLSENITVPDTKVNFYAWKRMEVEEQAIEVWQGLSLLSEAILQAQALLANSSQPPETLQLHIDKAISGLRSLTSLLRVLGAQKELMSPPDTTPPAPLRTLTVDTFCKLFRVYANFLRGKLKLYTGEVCRRGDR"
